Target: Human PTH1 receptor with a His-tag (human) (UniProt Q03431)
Test: QCM biosensor; PTH1R amine coupled to an LNB-carboxyl chip (Attana Cell 200); PTH injected at 4-20 ug/mL, 35 uL, 25 uL/min, dissociation 510 s; 20 °C; 10 mM HEPES, 150 mM NaCl, 0.005% Tween-20, pH 7.4; rate constant distributions (AIDA) and two-site model fitted to the sensorgrams one by one

Chain of UniProt Q03431 (Q03431 27-593): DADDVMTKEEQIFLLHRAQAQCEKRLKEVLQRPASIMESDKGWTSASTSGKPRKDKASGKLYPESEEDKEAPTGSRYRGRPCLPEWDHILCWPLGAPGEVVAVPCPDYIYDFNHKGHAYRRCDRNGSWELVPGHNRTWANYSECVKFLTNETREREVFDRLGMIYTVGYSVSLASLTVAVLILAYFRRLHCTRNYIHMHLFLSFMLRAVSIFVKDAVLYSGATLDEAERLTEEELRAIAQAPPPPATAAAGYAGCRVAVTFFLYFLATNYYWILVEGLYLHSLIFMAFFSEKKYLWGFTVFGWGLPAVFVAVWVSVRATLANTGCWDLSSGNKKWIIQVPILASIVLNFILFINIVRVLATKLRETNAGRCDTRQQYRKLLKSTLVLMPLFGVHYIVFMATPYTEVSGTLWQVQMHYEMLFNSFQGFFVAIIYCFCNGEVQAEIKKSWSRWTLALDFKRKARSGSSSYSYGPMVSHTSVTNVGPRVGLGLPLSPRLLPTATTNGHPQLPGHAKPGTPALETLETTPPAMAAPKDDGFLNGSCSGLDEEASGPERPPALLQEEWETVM

log10(ka), both distributions of the RCD (4129 nM injection): 4
log10(ka), first cluster (two-site fit): 4.2
log10(ka), second cluster (two-site fit): 3.7
log10(kd), first cluster (two-site fit): -0.9
log10(kd), one distribution of the RCD (4129 nM injection): -2
log10(kd), other distribution of the RCD (4129 nM injection): -1
log10(kd), second cluster (two-site fit): -2.3
Substance: parathyroid hormone (1-34) (peptide)
